Measured values: patent publication US20250242017A1, “HISTAMINE AND HRH1 SIGNALING ACTIVITY AS BIOMARKERS AND ASSOCIATED METHODS” (Board of Regents, The University of Texas System, priority 2022, published 2025)

Legend:
Assay type in all cases: in vivo, human
[1] = tested on: early-stage breast cancer; test: Retrospective analysis of medications in stage 0 or 1 breast cancer patients; conditions: poor outcome = recurrence or death
Excerpt: To explore whether some medications have impact on early-stage breast cancer recurrence, we performed a retrospective analysis of the most commonly prescribed medications took by patients with stage 0 or stage 1 breast cancer. Stage 0 and 1 breast cancers are highly treatable early-stage breast cancers and generally have very good prognosis in the first five years. Typically, surgery, radiation, or a combination of the two are the standard treatments. Hormone therapy, depending on the type of cancer cells and additional risk factors, is also an option. To rule out potential impact of the medications on therapies, patients who received treatment other than surgeries were excluded. 1652 patients diagnosed with stage 0 or 1 breast cancer at MDACC between 2016-2021 were enrolled in the study. 29 patients have been diagnosed with cancer recurrence (1.76%) and 3 out of 29 patients were deceased by 2021. Another 13 patients were also deceased, but whether cancer is the cause of their deaths is not clear. Altogether, total 42 patients (2.54%) have poor clinical outcome, including cancer recurrence or death. We first analyzed the 50 most prescribed drugs in USA which include many common drugs such as Aspirin, Simvastatin, and Metformin. About half of the drugs (24) were took by >100 patients based on their electric health record. To cover more medications, we further expanded the drug list by adding the top 20 over-the-counter medicines (OTC) sold on AMAZON website. To explore potential impact of medications on cancer recurrence and patient mortality, we compared the predicated patient numbers with poor clinical outcomes (X-axis) based on the estimated 2.54% (the ratio of total patients with poor outcome to total number of patients) versus the actual patient number with poor outcomes (Y-axis) of each medication (FIG. 15A). Most medications show limited impacts on patients' outcome, including Aspirin (8.5 vs. 8, estimated vs. actual patient number with poor outcome) and Metformin (3.5 vs 4). […] Instead, antihistamine may intercept or delay early-stage breast cancer progression by enhancing immune surveillance.

lung cancer patients = test: Responses of anti-PD-1-treated lung cancer patients by plasma histamine; conditions: patient count, lung cancer (n = 48)
Excerpt: (§1) Human samples. The untreated breast cancer samples including tumor tissues and blood plasma from TNBC patients who had undergone a mastectomy before therapy, normal breast tissues from women undergoing cosmetic breast surgery, and blood plasma from colon cancer patients and healthy subjects were collected at the First Affiliated Hospital of Chongqing Medical University. The blood plasma from patients with advanced lung (n=48), colon (n=12) and breast (n=10) cancers were collected pre-anti-PD1 treatment (patients were treated with Camrelizumab between Dec. 24, 2019 and Feb. 27, 2021) at the Beijing Friendship Hospital of Capital Medical. Best percentage change in the sum of the diameters for the selected target lesion is defined by Response Evaluation Criteria in Solid Tumors (RECIST version 1.1) on minimum 2 computed tomographic scans before treatment and 1 computed tomographic scan during treatment. The use of pathological specimens, as well as the review of all pertinent patient records, were approved by the Research Ethics Committee of the First Affiliated Hospital of Chongqing Medical University (project approval number 1005367 2017-012) and the Research Ethics Committee of Beijing Friendship Hospital of Capital Medical University (project approval number 2017-P2-141-01), and written informed consent were obtained from each participant and/or their legal representative, as appropriate.
(§2) Enzyme-linked immunosorbent assay (ELISA). The levels of histamine in cell culture supernatant, serum/plasma, and tissues were detected by Histamine ELISA kits (ENZ-KIT140-0001, Enzo; ab213975, Abcam) according to the manufacturer's instructions.

colon cancer patients = test: Responses of anti-PD-1-treated colon cancer patients by plasma histamine; conditions: patient count, colon cancer (n = 12)
Excerpt: as §1, §2

[2] = tested on: lung cancer, breast cancer, and colon cancer patients; test: Basket trial of anti-PD-1 treatment, response by pre-treatment plasma histamine (n=70)
Excerpt: as §1, §2

breast cancer patients = test: Responses of anti-PD-1-treated breast cancer patients by plasma histamine; conditions: patient count, breast cancer (n = 10)
Excerpt: as §1, §2

[3] = Histamine Medium (0.3-0.6 ng/ml)
[4] = Histamine Low (<0.3 ng/ml), no patients in group
[5] = patients with high levels of plasma histamine (>0.6 ng/mL)
[6] = patients with low levels of plasma histamine (<0.3 ng/mL)

Molecule: CN(C)C(=N)N=C(N)N [Metformin]
- estimated patient number with poor outcome ([1]; based on estimated 2.54% of patients taking the medication): 3.5
- actual patient number with poor outcome ([1]; patients taking the medication): 4

B1: Camrelizumab (antibody, chains of the INN, looked up, V domains shown)
VH: EVQLVESGGGLVQPGGSLRLSCAASGFTFSSYMMSWVRQAPGKGLEWVATISGGGANTYYPDSVKGRFTISRDNAKNSLYLQMNSLRAEDTAVYYCARQLYYFDYWGQGTTVTVSS
VL: DIQMTQSPSSLSASVGDRVTITCLASQTIGTWLTWYQQKPGKAPKLLIYTATSLADGVPSRFSGSGSGTDFTLTISSLQPEDFATYYCQQVYSIPWTFGGGTKVEIK
notes: anti-PD1 treatment of the basket-trial patients (Camrelizumab)
- Treatment response CR (lung cancer patients; Histamine High (≥0.6 ng/ml)): 0
- Treatment response PD (lung cancer patients; Histamine High (≥0.6 ng/ml)): 6
- Treatment response PR (lung cancer patients; Histamine High (≥0.6 ng/ml)): 2
- Treatment response SD (lung cancer patients; Histamine High (≥0.6 ng/ml)): 3
- Treatment response CR (lung cancer patients; Histamine Low (<0.3 ng/ml)): 1
- Treatment response PD (lung cancer patients; Histamine Low (<0.3 ng/ml)): 2
- Treatment response PR (lung cancer patients; Histamine Low (<0.3 ng/ml)): 9
- Treatment response SD (lung cancer patients; Histamine Low (<0.3 ng/ml)): 6
- Treatment response CR (lung cancer patients; [3]): 0
- Treatment response PD (lung cancer patients; [3]): 6
- Treatment response PR (lung cancer patients; [3]): 7
- Treatment response SD (lung cancer patients; [3]): 6
- Treatment response PD (colon cancer patients; Histamine High (≥0.6 ng/ml)): 4
- Treatment response PR (colon cancer patients; Histamine High (≥0.6 ng/ml)): 2
- Treatment response SD (colon cancer patients; Histamine High (≥0.6 ng/ml)): 2
- Treatment response PD (colon cancer patients; [4]): 0
- Treatment response PR (colon cancer patients; [4]): 0
- Treatment response SD (colon cancer patients; [4]): 0
- Treatment response PD (colon cancer patients; [3]): 1
- Treatment response PR (colon cancer patients; [3]): 2
- Treatment response SD (colon cancer patients; [3]): 1
- disease control rate (DCR) [2, 5]: 44%
- overall response rate (ORR) [2, 5]: 16%
- disease control rate (DCR) [2, 6]: 88.3%
- overall response rate (ORR) [2, 6]: 55.6%
- Treatment response PD (breast cancer patients; Histamine High (≥ 0.6 ng/ml)): 4
- Treatment response PR (breast cancer patients; Histamine High (≥ 0.6 ng/ml)): 0
- Treatment response SD (breast cancer patients; Histamine High (≥ 0.6 ng/ml)): 2
- Treatment response PD (breast cancer patients; [4]): 0
- Treatment response PR (breast cancer patients; [4]): 0
- Treatment response SD (breast cancer patients; [4]): 0
- Treatment response PD (breast cancer patients; [3]): 1
- Treatment response PR (breast cancer patients; [3]): 1
- Treatment response SD (breast cancer patients; [3]): 2
